# Reference: US10870872B2, “Enzymatic nucleic acid synthesis” (President and Fellows of Harvard College, priority 2016, dated 2020)
# What was measured:
# [1] = target: T1, TdT (Homo sapiens, UniProt P04053); assay: pH regulation of TdT enzyme activity (extension reactions, TBE-Urea gel); format: biochemical
# Procedure: The objective of these experiments is to determine the range of pH in which TdT is active.
# 1. A buffer of 50 mM Tris (base) and 50 mM Boric acid was prepared and its pH (initially at ˜8.5) was adjusted to 6.05, 6.9, 7.93, 8.96, 10.02, and 11.07 using acetic acid and sodium hydroxide. These buffers serve as 2× buffers in the experiments.
# 2. Extension reactions were assembled as follows:
# 3. Each reaction was incubated for 15 minutes and then loaded on a TBE-Urea gel with an unextended initiator for comparison.
# In the following experiment, TdT was incubated at a pH for 15 minutes without the nucleotide or the initiator, it was then combined with the nucleotide and the initiator in such a way that the final pH of the mixture during polymerization would be different from that of the initial 15 min incubation.
# 1. A buffer of 50 mM Tris (base) and 50 mM Boric acid was prepared and its pH (initially at ˜8.5) was adjusted to 6.05, 6.9, 7.93, 8.96, 10.02, and 11.07 using acetic acid and sodium hydroxide. These buffers serve as 2× buffers in the experiment.
# 2. Extension reactions were assembled in two parts:
# Eight different extension reactions were assembled with following pH used for the buffer in part 1 and part 2:
# 3. Both parts of each reaction were incubated for 15 minutes, they were then mixed to form the 20 μl total, then loaded on a TBE-Urea gel: […]
# [2] = target: T1, TdT; settings: Ashley et al., Virology 77, 367-375 (1977); cited from earlier work
molecule,measurement,setting,value
"TdT: template-independent DNA polymerase which extends single-stranded oligonucleotides (protein, UniProt P04053 1-509, looked up) DNA nucleotidylexotransferase: MDPPRASHLSPRKKRPRQTGALMASSPQDIKFQDLVVFILEKKMGTTRRAFLMELARRKGFRVENELSDSVTHIVAENNSGSDVLEWLQAQKVQVSSQPELLDVSWLIECIRAGKPVEMTGKHQLVVRRDYSDSTNPGPPKTPPIAVQKISQYACQRRTTLNNCNQIFTDAFDILAENCEFRENEDSCVTFMRAASVLKSLPFTIISMKDTEGIPCLGSKVKGIIEEIIEDGESSEVKAVLNDERYQSFKLFTSVFGVGLKTSEKWFRMGFRTLSKVRSDKSLKFTRMQKAGFLYYEDLVSCVTRAEAEAVSVLVKEAVWAFLPDAFVTMTGGFRRGKKMGHDVDFLITSPGSTEDEEQLLQKVMNLWEKKGLLLYYDLVESTFEKLRLPSRKVDALDHFQKCFLIFKLPRQRVDSDQSSWQEGKTWKAIRVDLVLCPYERRAFALLGWTGSRQFERDLRRYATHERKMILDNHALYDKTKRIFLKAESEEEIFAHLGLDYIEPWERNA",TdT enzymatic activity,[1]; pH ranges above 6 and below 11,highly active
same,TdT enzymatic activity,[1]; pH ranges below 6 and above 11,substantially inactivated
same,optimal pH,[2],6.85
